{"source": "patent US20190361034A1", "key": {"[1]": {"target": "MHC class II molecules on MHC class II-expressing Raji cells (human)", "assay": "transfer cell ELISA, Raji cells; 125 ng/ml; plate row C"}, "[2]": {"target": "MHC class II molecules on MHC class II-expressing Raji cells (human)", "assay": "transfer cell ELISA, Raji cells; 125 ng/ml; plate row D"}, "[3]": {"target": "MHC class II molecules on MHC class II-expressing Raji cells (human)", "assay": "transfer cell ELISA, Raji cells; 250 ng/ml; plate row C"}, "[4]": {"target": "MHC class II molecules on MHC class II-expressing Raji cells (human)", "assay": "transfer cell ELISA, Raji cells; 1000 ng/ml; plate row C"}, "[5]": {"target": "MHC class II molecules on MHC class II-expressing Raji cells (human)", "assay": "transfer cell ELISA, Raji cells; 1.953 ng/ml; plate row D"}, "[6]": {"target": "MHC class II molecules on MHC class II-expressing Raji cells (human)", "assay": "transfer cell ELISA, Raji cells; 3.906 ng/ml; plate row D"}, "[7]": {"target": "MHC class II molecules on MHC class II-expressing Raji cells (human)", "assay": "transfer cell ELISA, Raji cells; 31.25 ng/ml; plate row C"}, "[8]": {"target": "MHC class II molecules on MHC class II-expressing Raji cells (human)", "assay": "direct ELISA, plate-immobilised Raji cells; 5% BSA, 2,500 cells; 125 ng/ml"}, "[9]": {"target": "MHC class II molecules on MHC class II-expressing Raji cells (human)", "assay": "direct ELISA, plate-immobilised Raji cells; 5% BSA, 5,000 cells; 500 ng/ml"}, "[10]": {"target": "MHC class II molecules on MHC class II-expressing Raji cells (human)", "assay": "direct ELISA, plate-immobilised Raji cells; 10% FBS, 5,000 cells; 250 ng/ml"}, "[11]": {"target": "MHC class II molecules on MHC class II-expressing Raji cells (human)", "assay": "direct ELISA, plate-immobilised Raji cells; 5% BSA, 2,500 cells; 1000 ng/ml"}, "[12]": {"target": "MHC class II molecules on MHC class II-expressing Raji cells (human)", "assay": "direct ELISA, plate-immobilised Raji cells; 10% FBS, 10,000 cells; 250 ng/ml"}, "[13]": {"target": "MHC class II molecules on MHC class II-expressing Raji cells (human)", "assay": "direct ELISA, plate-immobilised Raji cells; 10% FBS, 10,000 cells; 62.5 ng/ml"}, "[14]": {"target": "MHC class II molecules on MHC class II-expressing Raji cells (human)", "assay": "direct ELISA, plate-immobilised Raji cells; 5% BSA, 2,500 cells; 15.625 ng/ml"}, "[15]": {"target": "MHC class II molecules on MHC class II-expressing Raji cells (human)", "assay": "direct ELISA, plate-immobilised Raji cells; 5% BSA, 5,000 cells; 15.625 ng/ml"}, "[16]": {"target": "MHC class II molecules on MHC class II-expressing Raji cells (human)", "assay": "direct ELISA, plate-immobilised Raji cells; 10% FBS, 2,500 cells; 15.625 ng/ml"}, "[17]": {"target": "MHC class II molecules on MHC class II-expressing Raji cells (human)", "assay": "direct ELISA, plate-immobilised Raji cells; 10% FBS, 5,000 cells; 15.625 ng/ml"}, "[18]": {"target": "MHC class II molecules on MHC class II-expressing Raji cells (human)", "assay": "transfer cell ELISA, Raji cells; 250 ng/ml"}, "[19]": {"target": "MHC class II molecules on MHC class II-expressing Raji cells (human)", "assay": "transfer cell ELISA, Raji cells; 1000 ng/ml"}, "[20]": {"target": "MHC class II molecules on MHC class II-expressing Raji cells (human)", "assay": "transfer cell ELISA, Raji cells; 62.5 ng/ml"}, "[21]": {"target": "MHC class II molecules on MHC class II-expressing Raji cells (human)", "assay": "transfer cell ELISA, Raji cells; 3.906 ng/ml"}, "[22]": {"target": "MHC class II molecules on MHC class II-expressing Raji cells (human)", "assay": "direct ELISA, plate-immobilised Raji cells; 3% gelatin, 2,500 cells; 500 ng/ml"}, "[23]": {"target": "MHC class II molecules on MHC class II-expressing Raji cells (human)", "assay": "direct ELISA, plate-immobilised Raji cells; 3% gelatin, 5,000 cells; 500 ng/ml"}, "[24]": {"target": "MHC class II molecules on MHC class II-expressing Raji cells (human)", "assay": "direct ELISA, plate-immobilised Raji cells; 0.5% Casein, 2,500 cells; 500 ng/ml"}, "[25]": {"target": "MHC class II molecules on MHC class II-expressing Raji cells (human)", "assay": "direct ELISA, plate-immobilised Raji cells; 0.5% Casein, 5,000 cells; 250 ng/ml"}, "[26]": {"target": "MHC class II molecules on MHC class II-expressing Raji cells (human)", "assay": "direct ELISA, plate-immobilised Raji cells; 3% gelatin, 10,000 cells; 250 ng/ml"}, "[27]": {"target": "MHC class II molecules on MHC class II-expressing Raji cells (human)", "assay": "direct ELISA, plate-immobilised Raji cells; 0.5% Casein, 10,000 cells; 250 ng/ml"}, "[28]": {"target": "MHC class II molecules on MHC class II-expressing Raji cells (human)", "assay": "direct ELISA, plate-immobilised Raji cells; 0.5% Casein, 2,500 cells; 1000 ng/ml"}, "[29]": {"target": "MHC class II molecules on MHC class II-expressing Raji cells (human)", "assay": "direct ELISA, plate-immobilised Raji cells; 0.5% Casein, 5,000 cells; 62.5 ng/ml"}, "[30]": {"target": "MHC class II molecules on MHC class II-expressing Raji cells (human)", "assay": "direct ELISA, plate-immobilised Raji cells; 3% gelatin, 10,000 cells; 1000 ng/ml"}, "[31]": {"target": "MHC class II molecules on MHC class II-expressing Raji cells (human)", "assay": "direct ELISA, plate-immobilised Raji cells; 3% gelatin, 5,000 cells; 31.25 ng/ml"}, "[32]": {"target": "MHC class II molecules on MHC class II-expressing Raji cells (human)", "assay": "direct ELISA, plate-immobilised Raji cells; 0.5% Casein, 5,000 cells; 31.25 ng/ml"}, "[33]": {"target": "MHC class II molecules on MHC class II-expressing Raji cells (human)", "assay": "direct ELISA, plate-immobilised Raji cells; 3% gelatin, 2,500 cells; 15.625 ng/ml"}, "[34]": {"target": "MHC class II molecules on MHC class II-expressing Raji cells (human)", "assay": "BLI; IMP321 sample diluted from reference standard to 50% binding potency, Raji cells in solution; relative to reference standard"}}, "data": [{"substance": "IMP321 treated with Peptide-N-Glycosidase F (PNGase F) (Fc fusion)", "values": [{"measurement": "OD (ELISA signal)", "setting": "[1]", "value": 0.166, "unit": "OD"}, {"measurement": "OD (ELISA signal)", "setting": "[2]", "value": 0.206, "unit": "OD"}, {"measurement": "OD (ELISA signal)", "setting": "[3]", "value": 0.276, "unit": "OD"}, {"measurement": "OD (ELISA signal)", "setting": "[4]", "value": 0.878, "unit": "OD"}, {"measurement": "OD (ELISA signal)", "setting": "[5]", "value": 0.01, "unit": "OD"}, {"measurement": "OD (ELISA signal)", "setting": "[6]", "value": 0.012, "unit": "OD"}, {"measurement": "OD (ELISA signal)", "setting": "[7]", "value": 0.042, "unit": "OD"}, {"measurement": "OD (ELISA signal)", "setting": "[8]", "value": 0.415, "unit": "OD"}, {"measurement": "OD (ELISA signal)", "setting": "[9]", "value": 1.36, "unit": "OD"}, {"measurement": "OD (ELISA signal)", "setting": "[10]", "value": 0.939, "unit": "OD"}, {"measurement": "OD (ELISA signal)", "setting": "[11]", "value": 1.83, "unit": "OD"}, {"measurement": "OD (ELISA signal)", "setting": "[12]", "value": 0.762, "unit": "OD"}, {"measurement": "OD (ELISA signal)", "setting": "[13]", "value": 0.29, "unit": "OD"}, {"measurement": "OD (ELISA signal)", "setting": "[14]", "value": 0.281, "unit": "OD"}, {"measurement": "OD (ELISA signal)", "setting": "[15]", "value": 0.274, "unit": "OD"}, {"measurement": "OD (ELISA signal)", "setting": "[16]", "value": 0.27, "unit": "OD"}, {"measurement": "OD (ELISA signal)", "setting": "[17]", "value": 0.327, "unit": "OD"}]}, {"substance": "IMP321, recombinant soluble human LAG-3Ig fusion protein (Fc fusion)", "values": [{"measurement": "OD (ELISA signal)", "setting": "[18]", "value": 0.956, "unit": "OD"}, {"measurement": "OD (ELISA signal)", "setting": "[19]", "value": 2.03, "unit": "OD"}, {"measurement": "OD (ELISA signal)", "setting": "[20]", "value": 0.223, "unit": "OD"}, {"measurement": "OD (ELISA signal)", "setting": "[21]", "value": 0.034, "unit": "OD"}, {"measurement": "OD (ELISA signal)", "setting": "[22]", "value": 2.56, "unit": "OD"}, {"measurement": "OD (ELISA signal)", "setting": "[23]", "value": 1.88, "unit": "OD"}, {"measurement": "OD (ELISA signal)", "setting": "[24]", "value": 0.18, "unit": "OD"}, {"measurement": "OD (ELISA signal)", "setting": "[25]", "value": 0.255, "unit": "OD"}, {"measurement": "OD (ELISA signal)", "setting": "[26]", "value": 1.39, "unit": "OD"}, {"measurement": "OD (ELISA signal)", "setting": "[27]", "value": 0.241, "unit": "OD"}, {"measurement": "OD (ELISA signal)", "setting": "[28]", "value": 0.112, "unit": "OD"}, {"measurement": "OD (ELISA signal)", "setting": "[29]", "value": 0.131, "unit": "OD"}, {"measurement": "OD (ELISA signal)", "setting": "[30]", "value": 1.97, "unit": "OD"}, {"measurement": "OD (ELISA signal)", "setting": "[31]", "value": 0.359, "unit": "OD"}, {"measurement": "OD (ELISA signal)", "setting": "[32]", "value": 0.143, "unit": "OD"}, {"measurement": "OD (ELISA signal)", "setting": "[33]", "value": 0.295, "unit": "OD"}, {"measurement": "Potency determined by BLI assay", "setting": "[34]", "value": 55, "unit": "%"}]}]}
